Consider 1 molecule from patent US20190231821A1 (published 2019).

For this assay, the target named is T1, human endogenous retrovirus-E (HERV-E); CT-RCC-1 peptide peptide on HLA-A11 (human).
T1 peptide: ATWLGSKTWK
As to the kind of experiment: multimer staining.

B1: HLA-A11 restricted HERV-E TCR (TCR, V domains shown)
Valpha: GIQVEQSPPDLILQEGANSTLRCNFSDSVNNLQWFHQNPWGQLINLFYIPSGTKQNGRLSATTVATERYSLLYISSSQTTDSGVYFCAVRGGADGLTFGKGTHLIIQP
Vbeta: DTEVTQTPKHLVMGMTNKKSLKCEQHMGHRAMYWYKQKAKKPPELMFVYSYEKLSINESVPSRFSPECPNSSLLNLHLHALQPEDSALYLCASSPPNEKLFFGSGTQLSVL
As to B1, the binding result is on record as “recognises”.
